The test system of this data set is CCCC[C@H](NC(=O)c1ccccc1)C(=O)N[C@@H](CCCCN)C(=O)N[C@@H](CCCNC(=N)N)C(=O)N[C@@H](CCCNC(=N)N)C(=O)Nc1ccc2c(C)cc(=O)oc2c1. Nature of the data set: In vitro WNV protease assay with tetra-peptide substrate. It counts as biochemical, West Nile virus. Conditions: other: tetra-peptide substrate; pH 9.5; 25.0 °C.

Consider one substance from article PMC3568461.

Broadly, the Km is the substrate concentration at which the rate is half of its maximum. As to “WNV NS2B-NS3 protease (West Nile virus strain NY-99)”, the Km is listed as 24.56 ± 1.43 µM.
